Laboratory results taken from patent US20120058906A1 (published 2012).

Tests used:
[1] = molecular target: T1, rHuman Notch-1/Fc Chimera, CF (R&D Systems Cat#3647-TK) (human, UniProt P46531 19-526); assay: ECL (MSD Multi-Spot) binding, antigen spotted on plate, Fab at 125 nM; blank spot 403;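 also: blank spot per well as comparator with Hit at signal to blank ratio of 4 or more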
T1 construct: Bought Fc chimera; Fc part of the bought chimera not given

[2] = molecular target: T2, rHuman IGF-1 sR (IGF-1 sR), CF (R&D Systems Cat#391-GR) (human, UniProt P08069 31-932); assay: as above
T2 construct: Bought soluble receptor; also called insulin-like growth factor-1 soluble receptor; IGF-R1

[3] = molecular target: T3, rHuman Erythropoietin R/Fc Chimera, CF (R&D Systems Cat#963-ER) (human, UniProt P19235 25-250); assay: as above
T3 construct: Bought Fc chimera; also called EPO R/Fc; Epo R; Fc part of the bought chimera not given
T3 sequence: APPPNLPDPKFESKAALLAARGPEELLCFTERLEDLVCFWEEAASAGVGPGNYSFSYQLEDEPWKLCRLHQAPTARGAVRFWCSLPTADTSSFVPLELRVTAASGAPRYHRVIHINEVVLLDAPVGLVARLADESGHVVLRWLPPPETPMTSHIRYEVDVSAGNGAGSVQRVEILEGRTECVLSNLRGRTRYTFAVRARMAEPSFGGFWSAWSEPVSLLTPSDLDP

[4] = molecular target: T1, rHuman Notch-1/Fc Chimera, CF (R&D …); assay: ECL (MSD Multi-Spot) binding, antigen spotted on plate, Fab at 250 nM; blank spot 590;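 also: blank spot per well as comparator with Hit at signal to blank ratio of 4 or more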
[5] = molecular target: T2, rHuman IGF-1 sR (IGF-1 sR), CF (R&D …); assay: as above
[6] = molecular target: T3, rHuman Erythropoietin R/Fc Chimera, CF …; assay: as above
[7] = molecular target: T1, rHuman Notch-1/Fc Chimera, CF (R&D …); assay: ECL (MSD Multi-Spot) binding, antigen spotted on plate, Fab at 500 nM; blank spot 680;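 also: blank spot per well as comparator with Hit at signal to blank ratio of 4 or more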
[8] = molecular target: T2, rHuman IGF-1 sR (IGF-1 sR), CF (R&D …); assay: as above
[9] = molecular target: T3, rHuman Erythropoietin R/Fc Chimera, CF …; assay: as above
[10] = molecular target: T1, rHuman Notch-1/Fc Chimera, CF (R&D …); assay: ECL (MSD Multi-Spot) binding, antigen spotted on plate, Fab at 7.8 nM; blank spot 316;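 also: blank spot per well as comparator with Hit at signal to blank ratio of 4 or more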
[11] = molecular target: T2, rHuman IGF-1 sR (IGF-1 sR), CF (R&D …); assay: as above
[12] = molecular target: T3, rHuman Erythropoietin R/Fc Chimera, CF …; assay: as above
[13] = molecular target: T1, rHuman Notch-1/Fc Chimera, CF (R&D …); assay: ECL (MSD Multi-Spot) binding, antigen spotted on plate, Fab at 15.6 nM; blank spot 294;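 also: blank spot per well as comparator with Hit at signal to blank ratio of 4 or more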
[14] = molecular target: T2, rHuman IGF-1 sR (IGF-1 sR), CF (R&D …); assay: as above
[15] = molecular target: T3, rHuman Erythropoietin R/Fc Chimera, CF …; assay: as above
[16] = molecular target: T1, rHuman Notch-1/Fc Chimera, CF (R&D …); assay: ECL (MSD Multi-Spot) binding, antigen spotted on plate, Fab at 31.3 nM; blank spot 250;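 also: blank spot per well as comparator with Hit at signal to blank ratio of 4 or more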
[17] = molecular target: T2, rHuman IGF-1 sR (IGF-1 sR), CF (R&D …); assay: as above
[18] = molecular target: T3, rHuman Erythropoietin R/Fc Chimera, CF …; assay: as above
[19] = molecular target: T1, rHuman Notch-1/Fc Chimera, CF (R&D …); assay: ECL (MSD Multi-Spot) binding, antigen spotted on plate, Fab at 62.5 nM; blank spot 268;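 also: blank spot per well as comparator with Hit at signal to blank ratio of 4 or more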
[20] = molecular target: T2, rHuman IGF-1 sR (IGF-1 sR), CF (R&D …); assay: as above
[21] = molecular target: T3, rHuman Erythropoietin R/Fc Chimera, CF …; assay: as above
[22] = molecular target: T1, rHuman Notch-1/Fc Chimera, CF (R&D …); assay: ECL (MSD Multi-Spot) binding, antigen spotted on plate, Fab at 1000 nM; blank spot 1133;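 also: blank spot per well as comparator with Hit at signal to blank ratio of 4 or more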
[23] = molecular target: T2, rHuman IGF-1 sR (IGF-1 sR), CF (R&D …); assay: as above
[24] = molecular target: T3, rHuman Erythropoietin R/Fc Chimera, CF …; assay: as above
[25] = molecular target: T4, rHuman ErbB2/Fc Chimera, CF (R&D Systems Cat#1129-ER) (human, UniProt P04626 23-652); assay: MSD ECL multi-spot assay, antigen spotted on plate, Fab 0.36 uM; blank spot 1948
T4 construct: Bought protein; also called HER2/neu; human epidermal growth factor 2 receptor; Fc part of the bought chimera not given

[26] = molecular target: T5, rHuman HGF R/c-MET/Fc Chimera, CF (R&D Systems Cat#358-MT/CF) (human, UniProt P08581 25-932); assay: as above
T5 construct: Bought protein; also called HGF R/Fc; hepatocyte growth factor receptor; Fc part of the bought chimera not given

[27] = molecular target: T6, rHuman CD44/Fc Chimera, CF (R&D Systems Cat#3660-CD) (human, UniProt P16070 21-220); assay: as above
T6 construct: Bought protein; Fc part of the bought chimera not given

[28] = molecular target: T7, rHuman IGF-1 sR (IGF-1 sR), CF (R&D Systems Cat#391-GR) (human, UniProt P08069 31-932); assay: as above
T7 construct: Bought soluble receptor; also called insulin-like growth factor-1 soluble receptor; IGF-R1

[29] = molecular target: T8, rHuman P-Cadherin/Fc Chimera, CF (R&D Systems Cat#861-PC) (human, UniProt P22223 108-654); assay: as above
T8 construct: Bought protein; also called CDH3; Fc part of the bought chimera not given

[30] = molecular target: T9, rHuman Erythropoietin R/Fc Chimera, CF (R&D Systems Cat#963-ER) (human, UniProt P19235 25-250); assay: as above
T9 construct: Bought protein; also called EPOR; EPO R/Fc; Fc part of the bought chimera not given
T9 sequence: T3 sequence

B1: Fab VH1-46_IGHD6-13*01_IGHJ4*01 & B3_IGKJ1*01 (Fab, V domains shown)
VH: QVQLVQSGAEVKKPGASVKVSCKASGYTFTSYYMHWVRQAPGQGLEWMGIINPSGGSTSYAQKFQGRVTMTRDTSTSTVYMELSSLRSEDTAVYYCAREGYSSSWYDYFDYWGQGTLVTVSS
VL: not shown
notes: Tested as a Fab made in E. coli: VH joined to the CH1 of Plasmid A (with Flag and His tags), VL joined to the kappa constant region of Plasmid C; also called VH1-46_IGHD6-13*01_IGH41*01 & B3_IGKJ1*01
ECL signal [1]: 802
ECL signal [2]: 654
ECL signal [3]: 9240
ECL signal [4]: 1240
ECL signal [5]: 993
ECL signal [6]: 8540
ECL signal [7]: 1980
ECL signal [8]: 1330
ECL signal [9]: 10300
ECL signal [10]: 486
ECL signal [11]: 353
ECL signal [12]: 6760
ECL signal [13]: 418
ECL signal [14]: 349
ECL signal [15]: 8360
ECL signal [16]: 563
ECL signal [17]: 385
ECL signal [18]: 7880
ECL signal [19]: 536
ECL signal [20]: 491
ECL signal [21]: 7750
ECL signal [22]: 2270
ECL signal [23]: 1670
ECL signal [24]: 8590

B2: Fab VH4-28_IGHD7-27*01_IGHJ1*01 & L2_IGKJ1*01 (Fab, V domains shown)
VH: QVQLQESGPGLVKPSDTLSLTCAVSGYSISSSNWWGWIRQPPGKGLEWIGYIYYSGSTYYNPSLKSRVTMSVDTSKNQFSLKLSSVTAVDTAVYYCARTNWGAEYFQHWGQGTLVTVSS
VL: not shown
ECL signal [25]: 2030
ECL signal [26]: 2030
ECL signal [27]: 2480
ECL signal [28]: 1700
ECL signal [29]: 2740
ECL signal [30]: 19400
